Data taken from PMC5724578 (Biochemistry, 2017).

Assay: Stability of EVH1 mutant in aqueous solution
Format: physicochemical

B1: EVH1 Y39E: phosphomimetic Y39E mutant of human VASP EVH1 domain (protein)
chain: GPGGRMSSETVICSSRATVMLYDDGNKRWLPAGTGPQAFSRVQIEHNPTANSFRVVGRKMQPDQQVVINCAIVRGVKYNQATPNFHQWRDARQVWGLNFGSKEDAAQFAAGMASALEALEG
modifications: left off: His tag, end not stated, cleaved
Question: Which “stability in aqueous solution” value does the source give for B1 here?
Answer: stable in aqueous solution
